One block for each substance: values may come before it.
How the values were obtained:
SecY_(268Fl)EG (E. coli) [1] = molecular target: SecY_(268Fl)EG (E. coli) (UniProt P0AGA2); assay: other fluorescence titration; fluorescence quench of 5 nM SecY_(268Fl)EG, 1 mM p[NH]ppA, 20 mM Tris/HCl pH 8, 130 mM NaCl, 10% glycerol, 2 mM MgCl2, 0.03% C12E9; SecA titrated 0-1 μM; no DTT; one-site fit with linear phase
SecY_(268Fl)EG (E. coli) [2] = molecular target: SecY_(268Fl)EG (E. coli) (UniProt P0AGA2); assay: other fluorescence titration; fluorescence quench of 5 nM SecY_(268Fl)EG, 1 mM p[NH]ppA, 20 mM Tris/HCl pH 8, 130 mM NaCl, 10% glycerol, 2 mM MgCl2, 0.03% C12E9; SecA titrated 0-1 μM; with 10 mM DTT; one-site fit with linear phase
[3] = molecular target: SecA_(D337C/E806C), uncross-linked, clamp released from the open state with 10 mM DTT (E. coli) (UniProt P10408); assay: SEC; Superose 6 10/300 GL, 20 mM Tris/HCl pH 7.5, 100 mM KCl, with or without 10 mM DTT; column calibrated with gel-filtration standards
[4] = molecular target: SecA_(D337C/K482C), uncross-linked, clamp released from the closed state with 10 mM DTT (E. coli) (UniProt P10408); assay: as above
[5] = molecular target: SecA_(Δcys), SecA without cysteine residues (E. coli) (UniProt P10408); assay: as above
[6] = molecular target: SecA_(D337C/E806C), released with 10 mM DTT (E. coli) (UniProt P10408); assay: steady-state ATPase activity titration; 80 nM SecA in TKM buffer, 1 mM ATP, increasing vesicles reconstituted with purified SecYEG; without proOmpA; with 10 mM DTT; Kd from a ligand-binding fit
SecA_(Δcys) (E. coli) [7] = molecular target: SecA_(Δcys) (E. coli) (UniProt P10408); assay: as above
[8] = molecular target: SecA_(D337C/K482C), released with 10 mM DTT (E. coli) (UniProt P10408); assay: as above
SecA_(Δcys) (E. coli) [9] = molecular target: SecA_(Δcys) (E. coli) (UniProt P10408); assay: steady-state ATPase activity titration; 0.15 μM SecA in TKM buffer (pH 7.5), 1 mM ATP, 0.03% C12E9, 25°C, increasing detergent-solubilised SecYEG; no DTT; apparent Kd from a ligand-binding fit
[10] = molecular target: SecA_(D337C/E806C), cross-linked (clamp open) (E. coli) (UniProt P10408); assay: as above
[11] = molecular target: SecA_(D337C/K482C), cross-linked (clamp closed) (E. coli) (UniProt P10408); assay: as above
[12] = molecular target: SecA_(D337C/E806C), released with 10 mM DTT (E. coli) (UniProt P10408); assay: steady-state ATPase activity titration; 80 nM SecA in TKM buffer, 1 mM ATP, increasing vesicles reconstituted with purified SecYEG; in the presence of 0.6 μM proOmpA_(Δcys); with 10 mM DTT; Kd from a ligand-binding fit
SecA_(Δcys) (E. coli) [13] = molecular target: SecA_(Δcys) (E. coli) (UniProt P10408); assay: as above
[14] = molecular target: SecA_(D337C/K482C), released with 10 mM DTT (E. coli) (UniProt P10408); assay: as above
SecA_(Δcys) (E. coli) [15] = molecular target: SecA_(Δcys) (E. coli) (UniProt P10408); assay: steady-state ATPase activity titration; 80 nM SecA in TKM buffer, 1 mM ATP, increasing vesicles reconstituted with purified SecYEG; in the presence of 0.6 μM proOmpA_(Δcys); no DTT; Kd from a ligand-binding fit
[16] = molecular target: SecA_(D337C/E806C), cross-linked (clamp open) (E. coli) (UniProt P10408); assay: as above
[17] = molecular target: SecA_(D337C/K482C), cross-linked (clamp closed) (E. coli) (UniProt P10408); assay: as above
[18] = molecular target: SecA_(D337C/E806C), released with 10 mM DTT (E. coli) (UniProt P10408); assay: steady-state ATPase activity titration; 0.15 μM SecA in TKM buffer (pH 7.5), 1 mM ATP, 0.03% C12E9, 25°C, increasing detergent-solubilised SecYEG; with 10 mM DTT; apparent Kd from a ligand-binding fit
SecA_(Δcys) (E. coli) [19] = molecular target: SecA_(Δcys) (E. coli) (UniProt P10408); assay: as above
[20] = molecular target: SecA_(D337C/K482C), released with 10 mM DTT (E. coli) (UniProt P10408); assay: as above
SecA_(Δcys) (E. coli) [21] = molecular target: SecA_(Δcys) (E. coli) (UniProt P10408); assay: steady-state ATPase activity titration; 0.15 μM SecA in TKM buffer, 1 mM ATP, increasing detergent-solubilised SecYEG, in the presence of 40 μM cardiolipin (CL); no DTT; apparent Kd from a ligand-binding fit
SecA_(Δcys) (E. coli) [22] = molecular target: SecA_(Δcys) (E. coli) (UniProt P10408); assay: steady-state ATPase activity titration; 80 nM SecA in TKM buffer, 1 mM ATP, increasing vesicles reconstituted with purified SecYEG; without proOmpA; no DTT; Kd from a ligand-binding fit
[23] = molecular target: SecA_(D337C/E806C), cross-linked (clamp open) (E. coli) (UniProt P10408); assay: as above
[24] = molecular target: SecA_(D337C/K482C), cross-linked (clamp closed) (E. coli) (UniProt P10408); assay: as above
[25] = molecular target: SecA_(D337C/E806C), released with 10 mM DTT (E. coli) (UniProt P10408); assay: steady-state ATPase activity titration; 0.15 μM SecA in TKM buffer, 1 mM ATP, increasing detergent-solubilised SecYEG, in the presence of 40 μM cardiolipin (CL); with 10 mM DTT; apparent Kd from a ligand-binding fit
SecA_(Δcys) (E. coli) [26] = molecular target: SecA_(Δcys) (E. coli) (UniProt P10408); assay: as above
[27] = molecular target: SecA_(D337C/K482C), released with 10 mM DTT (E. coli) (UniProt P10408); assay: as above
[28] = molecular target: preformed SecA_(Δcys)–SecYEG membrane-bound complex (E. coli) (UniProt P10408); assay: steady-state ATPase activity titration; 80 nM SecA with 1.08 μM SecYEG reconstituted into E. coli polar lipids in TKM buffer, 1 mM ATP, increasing purified proOmpA_(Δcys); with 10 mM DTT; Kd from a ligand-binding fit
[29] = molecular target: preformed SecA_(D337C/K482C) (released with DTT)–SecYEG membrane-bound complex (E. coli) (UniProt P10408); assay: as above
[30] = molecular target: preformed SecA_(D337C/E806C) (released with DTT)–SecYEG membrane-bound complex (E. coli) (UniProt P10408); assay: as above
[31] = molecular target: preformed SecA_(Δcys)–SecYEG membrane-bound complex (E. coli) (UniProt P10408); assay: steady-state ATPase activity titration; 80 nM SecA with 1.08 μM SecYEG reconstituted into E. coli polar lipids in TKM buffer, 1 mM ATP, increasing purified proOmpA_(Δcys); no DTT; Kd from a ligand-binding fit

Substance: SecA_(D337C/E806C), cross-linked (clamp open) (from UniProt P10408 1-901) (enzyme)
Kd (SecY_(268Fl)EG (E. coli) [1]): 60.9 nM

Substance: SecA_(D337C/E806C), released with 10 mM DTT (from UniProt P10408 1-901) (enzyme)
Kd (SecY_(268Fl)EG (E. coli) [2]): 59.5 nM

Substance: SecA_(D337C/E806C), uncross-linked, clamp released from the open state with 10 mM DTT (from UniProt P10408 1-901) (enzyme)
stoichiometry N [3]: 2

Substance: SecA_(Δcys), SecA without cysteine residues (from UniProt P10408 1-901) (enzyme)
stoichiometry N [5]: 2

Substance: SecYEG (from UniProt P0AGA2 1-443; P0AG96 1-127; P0AG99 1-110) (complex)
Kd [6]: 650 nM | Kd (SecA_(Δcys) (E. coli) [7]): 1110 nM | Kd [8]: 340 nM | Kd (SecA_(Δcys) (E. coli) [9]): 7600 nM | Kd [10]: 5900 nM | Kd [11]: 15 nM | Kd [12]: 130 nM | Kd (SecA_(Δcys) (E. coli) [13]): 190 nM | Kd [14]: 130 nM | Kd (SecA_(Δcys) (E. coli) [15]): 260 nM | Kd [16]: 170 nM | Kd [17]: 25 nM | Kd [18]: 6000 nM | Kd (SecA_(Δcys) (E. coli) [19]): 7800 nM | Kd [20]: 6300 nM | Kd (SecA_(Δcys) (E. coli) [21]): 3.7 nM | Kd (SecA_(Δcys) (E. coli) [22]): 1130 nM | Kd [23]: 650 nM | Kd [24]: 29 nM | Kd [25]: 6.5 nM | Kd (SecA_(Δcys) (E. coli) [26]): 5.6 nM | Kd [27]: 8.8 nM

Substance: proOmpA_(Δcys) (from UniProt P0A910 22-346) (natural protein)
Kd [28]: 780 nM | Kd [29]: 240 nM | Kd [30]: 350 nM | Kd [31]: 500 nM

Now from value to substance:

Kd (SecY_(268Fl)EG (E. coli) [1]): 28.6 nM
Substance: SecA_(D337C/K482C), cross-linked (clamp closed) (from UniProt P10408 1-901) (enzyme)

Kd (SecY_(268Fl)EG (E. coli) [2]): 118 nM
Substance: SecA_(D337C/K482C), released with 10 mM DTT (from UniProt P10408 1-901) (enzyme)

stoichiometry N [4]: 2
Substance: SecA_(D337C/K482C), uncross-linked, clamp released from the closed state with 10 mM DTT (from UniProt P10408 1-901) (enzyme)

Kd (SecY_(268Fl)EG (E. coli) [2]): 20.6 nM | Kd (SecY_(268Fl)EG (E. coli) [1]): 18.4 nM
Substance: SecA_(Δcys) (from UniProt P10408 1-901) (enzyme)

Source: article PMC3685266
